Values belong to the binder of their own block, whether it stands above or below them.
Biological target: HSP90αM domain (solid phase assays of Figure 2B and 2C)
Test: ELISA

Kd: 222 nM
B1: 45-kDa gelatin-binding FN fragment (FN45) (domain or fragment)
chain: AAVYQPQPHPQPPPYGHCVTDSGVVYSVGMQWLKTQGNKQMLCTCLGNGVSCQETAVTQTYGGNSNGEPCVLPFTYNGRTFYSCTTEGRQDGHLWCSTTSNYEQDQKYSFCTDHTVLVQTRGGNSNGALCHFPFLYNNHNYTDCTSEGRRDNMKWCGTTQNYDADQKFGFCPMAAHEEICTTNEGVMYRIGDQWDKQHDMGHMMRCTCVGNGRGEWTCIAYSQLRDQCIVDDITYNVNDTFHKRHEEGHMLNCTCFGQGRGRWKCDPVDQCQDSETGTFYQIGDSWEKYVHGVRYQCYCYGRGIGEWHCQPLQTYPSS

Kd: 65.1 nM
B2: N-terminal FN 30-kDa heparin-binding fragment (FN30) (domain or fragment)
chain: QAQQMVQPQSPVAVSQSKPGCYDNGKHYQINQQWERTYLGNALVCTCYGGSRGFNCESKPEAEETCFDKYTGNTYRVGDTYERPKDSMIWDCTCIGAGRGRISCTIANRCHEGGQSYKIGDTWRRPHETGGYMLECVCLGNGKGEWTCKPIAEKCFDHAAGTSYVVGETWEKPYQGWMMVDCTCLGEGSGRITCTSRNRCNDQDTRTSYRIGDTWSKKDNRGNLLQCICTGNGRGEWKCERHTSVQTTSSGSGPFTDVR

— article PMC7072298 (2020)
